From patent US20230159646A1 (IBIO, published 2023) come the findings set out here.

One may read the koff as the rate constant with which the complex falls apart. What is called kon is the second-order rate constant of association. Lower therefore signals slow association. One may read the Kd as the concentration at which binding is half-saturated. The term EC50 denotes the concentration that produces a half-maximal response. A high value points to a less potent agent.

The target of test [1] is T1, CD25 (as used in the Carterra LSA kinetics; species and construct not stated) (Homo sapiens (Human), UniProt P01589 22-240).
T1 sequence: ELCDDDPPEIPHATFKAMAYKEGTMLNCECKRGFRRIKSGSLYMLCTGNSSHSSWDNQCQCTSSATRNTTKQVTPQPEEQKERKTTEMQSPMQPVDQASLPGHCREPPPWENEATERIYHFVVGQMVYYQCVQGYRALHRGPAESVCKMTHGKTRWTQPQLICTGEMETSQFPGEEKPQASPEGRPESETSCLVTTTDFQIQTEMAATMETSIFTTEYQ
Description: Carterra LSA kinetics.

The target of test [2] is T1, CD25 (as used in the Carterra LSA …). As to the kind of experiment: Carterra LSA kinetics; KD SD 1.27 nM.
The target of test [3] is T2, mouse CD25 (immobilized, ELISA) (mouse, UniProt P01590 22-236, limits assumed).
T2 construct: also called immobilized mouse CD25
T2 sequence (looked up): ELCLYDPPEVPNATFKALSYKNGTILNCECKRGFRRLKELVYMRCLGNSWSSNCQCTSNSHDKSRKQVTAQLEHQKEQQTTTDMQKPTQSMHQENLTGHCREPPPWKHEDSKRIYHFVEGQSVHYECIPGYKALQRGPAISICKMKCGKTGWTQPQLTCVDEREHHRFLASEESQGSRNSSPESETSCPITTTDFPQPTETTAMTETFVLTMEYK
Description: ELISA, immobilized mouse CD25 (N/A in the 14th table, row 10, column 6). (An ELISA detects its analyte on a solid surface through an enzyme-linked reagent.)

The target in test [4] is T3, human CD25 (Sino Biologicals, 10165-H08H) (human, UniProt P01589 22-213).
T3 construct: Bought recombinant protein coated on ELISA plates; also called immobilized human CD25; IL2RA
T3 sequence (looked up): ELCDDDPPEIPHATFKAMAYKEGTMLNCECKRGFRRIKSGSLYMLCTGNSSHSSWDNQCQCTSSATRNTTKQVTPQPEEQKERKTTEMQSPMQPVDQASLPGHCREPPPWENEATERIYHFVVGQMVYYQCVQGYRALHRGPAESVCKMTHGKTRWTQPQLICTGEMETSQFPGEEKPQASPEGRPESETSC
As to the kind of experiment: ELISA, immobilized human CD25; average of n>=3, SD 3.2.

Test [5] concerns the target T4, CD25 endogenously expressed on SUDHL-1 human lymphoma cell line and on induced human Treg (iTreg) (human, UniProt P01589 22-272).
T4 construct: whole, on cells; also called CD25 on SUDHL-1 and iTreg; CD25 expressing SUDHL-1
T4 sequence (looked up): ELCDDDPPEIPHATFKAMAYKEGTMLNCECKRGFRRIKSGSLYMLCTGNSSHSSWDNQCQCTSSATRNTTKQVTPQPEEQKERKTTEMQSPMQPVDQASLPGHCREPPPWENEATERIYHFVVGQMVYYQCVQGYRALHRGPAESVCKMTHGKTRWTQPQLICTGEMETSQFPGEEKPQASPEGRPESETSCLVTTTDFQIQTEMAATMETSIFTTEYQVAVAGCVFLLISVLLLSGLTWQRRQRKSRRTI
As to the kind of experiment: flow cytometry, SUDHL-1 cells; average of n>=6, SD 38.12. On the technique in general: In flow cytometry, cells or beads pass a laser one at a time.

Test [6] addresses T5, cynomolgus CD25 (Sino Biologicals, 90265-C08H) (cynomolgus, UniProt H6WS54 22-213).
T5 construct: Bought recombinant protein coated on ELISA plates; also called immobilized cynomolgus CD25; cynos monkey CD25
T5 sequence: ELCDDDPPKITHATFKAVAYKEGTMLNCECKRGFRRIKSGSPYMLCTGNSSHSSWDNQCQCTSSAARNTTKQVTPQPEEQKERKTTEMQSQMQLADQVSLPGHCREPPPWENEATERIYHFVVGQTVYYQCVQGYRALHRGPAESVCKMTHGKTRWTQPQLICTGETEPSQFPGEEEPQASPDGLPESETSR
Description: ELISA, immobilized cynomolgus CD25; average of n>=3, SD 9.8.

For test [7], the target named is T4, CD25 endogenously expressed on SUDHL-1 …. Description: flow cytometry, human iTreg cells; average of n=3, SD 83.94.
For test [8], the target named is T1, CD25 (as used in the Carterra LSA …). As to the kind of experiment: Carterra LSA kinetics; KD SD 1.03 nM.
Test [9] has as its target T2, mouse CD25 (immobilized, ELISA). As to the kind of experiment: ELISA, immobilized mouse CD25 (N/A in the 14th table, row 8, column 6).
Test [10] concerns the target T3, human CD25 (Sino Biologicals, …). Description: ELISA, immobilized human CD25; average of n>=3, SD 2.5.
The target in test [11] is T4, CD25 endogenously expressed on SUDHL-1 …. Description: flow cytometry, SUDHL-1 cells; average of n>=6, SD 39.9.
Test [12] has the same target. As to the kind of experiment: flow cytometry, human iTreg cells; average of n=3, SD 40.50.
The target of test [13] is T5, cynomolgus CD25 (Sino Biologicals, …). As to the kind of experiment: ELISA, immobilized cynomolgus CD25; average of n>=3, SD 12.3.
The target of test [14] is T2, mouse CD25 (immobilized, ELISA). Description: ELISA, immobilized mouse CD25 (N/A in the 14th table, row 7, column 6).
Test [15] shares this target. Description: ELISA, immobilized mouse CD25 (N/A in the 14th table, row 9, column 6).

B1: IBIO-101-plant-afuc (SD-889825-PC-A; IBIO-101, c-105 plant Afucosylated) (antibody, human IgG1, kappa, V domains shown)
VH: QVQLVQSGAEVKKPGASLKISCKGSGYTFTDYAMHWVRQAPGQGLEWIGVISTYSGDAIYAQKFQGRATMTVDTSTSTAYLELSSLRSEDTAVYYCARGVTFDYWGQGTTVTVSS
VL: DIQMTQSPSSLSASVGDRVTITCRASQDISNYLEWYQQKPGKAPKLLVYNAKTLAEGVPSRFSGSGSGTDFTLTISSLQPEDFGTYYCQHHYDTPYTFGQGTKLEIKR
modifications: afucosylated glycan (made in C105 dXT/FT plants deficient in fucosylation and xylosylation)
notes: Signal peptide of the entries is not part of the mature antibody; Human IgG1 constant region, afucosylated; also called RTX-003; hD11
The molecule B1 returned a koff in [1] of 0.00207 s⁻¹. Besides, the kon in test [1] was 492000 M⁻¹ s⁻¹. In addition, in test [2], binding was put at a Kd of 4.27 nM. Also, the binding result in [3] is given as “no binding (tested: 10 µg/mL)”. The EC50 in [4] turned out to be 0.0174 µg/mL; in test [5] it was 0.123 µg/mL; in test [6] it was 0.0424 µg/mL; in [7] it was 0.218 µg/mL.

B2: IBIO-101-CHO-afuc (SD-889825-CG-A; IBIO-101, CHO cells Afucosylated) (antibody, human IgG1, kappa, V domains shown)
VH: QVQLVQSGAEVKKPGASLKISCKGSGYTFTDYAMHWVRQAPGQGLEWIGVISTYSGDAIYAQKFQGRATMTVDTSTSTAYLELSSLRSEDTAVYYCARGVTFDYWGQGTTVTVSS
VL: DIQMTQSPSSLSASVGDRVTITCRASQDISNYLEWYQQKPGKAPKLLVYNAKTLAEGVPSRFSGSGSGTDFTLTISSLQPEDFGTYYCQHHYDTPYTFGQGTKLEIKR
modifications: afucosylated glycan (as printed: afucosylated)
notes: signal peptide of the entries is not part of the mature antibody; Human IgG1 constant region, afucosylated; also called RTX-003; hD11
In test [1], B2 registered a koff of 0.00119 s⁻¹. In test [1], the kon worked out at 499000 M⁻¹ s⁻¹. Moreover, the Kd in [8] was found to be 3.9 nM. Further, the binding result in [9] is “no binding (tested: 10 µg/mL)”. For the same molecule, the concentration giving a half-maximal response (EC50) in [10] worked out at 0.0156 µg/mL; in [11] it was 0.126 µg/mL; in [12] it was 0.219 µg/mL; in test [13] it was 0.0431 µg/mL.

B3: IBIO-101-CHO-WT (SD-889825-CW-A; IBIO-101, wild-type CHO cells) (antibody, human IgG1, kappa, V domains shown)
VH: QVQLVQSGAEVKKPGASLKISCKGSGYTFTDYAMHWVRQAPGQGLEWIGVISTYSGDAIYAQKFQGRATMTVDTSTSTAYLELSSLRSEDTAVYYCARGVTFDYWGQGTTVTVSS
VL: DIQMTQSPSSLSASVGDRVTITCRASQDISNYLEWYQQKPGKAPKLLVYNAKTLAEGVPSRFSGSGSGTDFTLTISSLQPEDFGTYYCQHHYDTPYTFGQGTKLEIKR
notes: the entries carry the plant extensin signal peptide, which is not part of the mature antibody; Human IgG1 constant region, fucosylated (WT); also called RTX-003; hD11
In the case of B3, the binding result in [14] is “no binding (tested: 10 µg/mL)”.

B4: IBIO-101-plant-WT (SD-889825-PW-A; IBIO-101, wild-type plant) (antibody, human IgG1, kappa, V domains shown)
VH: QVQLVQSGAEVKKPGASLKISCKGSGYTFTDYAMHWVRQAPGQGLEWIGVISTYSGDAIYAQKFQGRATMTVDTSTSTAYLELSSLRSEDTAVYYCARGVTFDYWGQGTTVTVSS
VL: DIQMTQSPSSLSASVGDRVTITCRASQDISNYLEWYQQKPGKAPKLLVYNAKTLAEGVPSRFSGSGSGTDFTLTISSLQPEDFGTYYCQHHYDTPYTFGQGTKLEIKR
notes: Signal peptide of the entries is not part of the mature antibody; Made in wild-type Nicotiana benthamiana; human IgG1 constant region; also called RTX-003; hD11
Turning to B4, the binding result in test [15] is on record as “no binding (tested: 10 µg/mL)”.
